Results: publication PMC10484726, “Archaeal Hel308 suppresses recombination through a catalytic switch that controls DNA annealing”

Target: T1, Mth-Hel308 wild type (Methanothermobacter thermautotrophicus, UniProt O26901 1-690)
T1 sequence: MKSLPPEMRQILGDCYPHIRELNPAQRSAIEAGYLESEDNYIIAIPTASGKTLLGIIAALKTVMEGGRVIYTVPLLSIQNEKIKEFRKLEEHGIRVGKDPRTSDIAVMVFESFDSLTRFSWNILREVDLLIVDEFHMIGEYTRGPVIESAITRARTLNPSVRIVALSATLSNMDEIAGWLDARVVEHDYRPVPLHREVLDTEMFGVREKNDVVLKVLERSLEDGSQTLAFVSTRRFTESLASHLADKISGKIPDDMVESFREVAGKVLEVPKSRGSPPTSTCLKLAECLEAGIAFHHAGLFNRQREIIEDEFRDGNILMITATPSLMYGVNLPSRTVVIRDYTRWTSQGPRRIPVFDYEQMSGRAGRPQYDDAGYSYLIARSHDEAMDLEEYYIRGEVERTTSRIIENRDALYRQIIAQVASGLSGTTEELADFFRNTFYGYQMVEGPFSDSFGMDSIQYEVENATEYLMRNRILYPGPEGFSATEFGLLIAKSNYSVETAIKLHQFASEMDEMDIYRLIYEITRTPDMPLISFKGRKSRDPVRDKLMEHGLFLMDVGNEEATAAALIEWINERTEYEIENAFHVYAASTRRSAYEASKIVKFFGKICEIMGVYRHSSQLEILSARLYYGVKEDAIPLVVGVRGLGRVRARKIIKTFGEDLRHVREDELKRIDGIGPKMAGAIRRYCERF
Assay: EMSA; 5 mM EDTA; 25 nM DNA; EMSA: 20 mM Tris-HCl pH 7.5, 100 ug/ml BSA, 7% glycerol, 25 mM DTT, 5 mM EDTA, 25 nM Cy5-DNA; 5% TBE gel; no added salt stated; 37 C 10 min stated for duplex DNA reactions
Settings: protein: recombinant; tags: N-terminal His6; label: Cy5 (end label); fork

B1: forked DNA substrate (dsDNA)
DNA 1: GTCGGATCCTCTAGACAGCTCCATGATCACTGGCACTGGTAGAATTCGGC
DNA 2: CAACGTCATAGACGATTACATTGCTACATGGAGCTGTCTAGAGGATCCGA
Kd: 68.2 nM
